Consider two variants from IntAct's records for PubMed 9278513.

B1: Phytochrome-like protein Cph1 (Synechocystis sp. (strain PCC 6803 / Kazusa)), Q55168 (parent)
chain: MATTVQLSDQSLRQLETLAIHTAHLIQPHGLVVVLQEPDLTISQISANCTGILGRSPEDLLGRTLGEVFDSFQIDPIQSRLTAGQISSLNPSKLWARVMGDDFVIFDGVFHRNSDGLLVCELEPAYTSDNLPFLGFYHMANAALNRLRQQANLRDFYDVIVEEVRRMTGFDRVMLYRFDENNHGDVIAEDKRDDMEPYLGLHYPESDIPQPARRLFIHNPIRVIPDVYGVAVPLTPAVNPSTNRAVDLTESILRSAYHCHLTYLKNMGVGASLTISLIKDGHLWGLIACHHQTPKVIPFELRKACEFFGRVVFSNISAQEDTETFDYRVQLAEHEAVLLDKMTTAADFVEGLTNHPDRLLGLTGSQGAAICFGEKLILVGETPDEKAVQYLLQWLENREVQDVFFTSSLSQIYPDAVNFKSVASGLLAIPIARHNFLLWFRPEVLQTVNWGGDPNHAYEATQEDGKIELHPRQSFDLWKEIVRLQSLPWQSVEIQSALALKKAIVNLILRQAEELAQLARNLERSNADLKKFAYIASHDLQEPLNQVSNYVQLLEMRYSEALDEDAKDFIDFAVTGVSLMQTLIDDILTYAKVDTQYAQLTFTDVQEVVDKALANLKQRIEESGAEIEVGSMPAVMADQIQLMQVFQNLIANGIKFAGDKSPKIKIWGDRQEDAWVFAVQDNGIGIDPQFFERIFVIFQRLHTRDEYKGTGMGLAICKKIIEGHQGQIWLESNPGEGSTFYFSIPIGN
partner: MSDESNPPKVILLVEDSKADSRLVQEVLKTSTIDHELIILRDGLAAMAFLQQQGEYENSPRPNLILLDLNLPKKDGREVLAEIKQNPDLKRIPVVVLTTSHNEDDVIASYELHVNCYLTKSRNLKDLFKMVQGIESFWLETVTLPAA
B2: Response regulator Rcp1 (Synechocystis sp. (strain PCC 6803 / Kazusa)), Q55169 (parent)
chain: B1 partner

One assay covers variants of B1. Particulars: with rcp1_syny3 rcp1, Q55169.
As to H538K, the “effect of a mutation on the interaction” value was “disrupting interaction”.

A further assay covers variants of B2. Particulars: with phy1_syny3 cph1, Q55168.
Turning to D68A, the “effect of a mutation on the interaction” value is listed as “disrupting interaction”.
